± gives the uncertainty stated by the source.
B1: Zinc finger MYM-type protein 2, residues 463 to 506; numbered along this chain, Q9UBW7 (parent)
chain: IMNCCEQCGEYLPSKGAGNNVLVIDGQQKRFCCQSCVSEYKQVG

Variants of: B1
Test: abundance fitness (aPCA) (normalised: wild type 0, dead -1); higher = more abundant; growth selection in yeast, the domain comes from the species named
Settings: Homo sapiens

| Variant | abundance fitness |
| --- | --- |
| IMNCCGQCGEYLPSKGAGNNVLVIDGQQKRFCCQSCVSEYKQVG [E6G] | -0.184 ± 0.076 |
| IMNCCDQCGEYLPSKGAGNNVLVIDGQQKRFCCQSCVSEYKQVG [E6D] | 0.071 ± 0.13 |
| IMNCCRQCGEYLPSKGAGNNVLVIDGQQKRFCCQSCVSEYKQVG [E6R] | -0.369 ± 0.082 |
| IMNCCWQCGEYLPSKGAGNNVLVIDGQQKRFCCQSCVSEYKQVG [E6W] | -0.375 ± 0.09 |
| IMNCCKQCGEYLPSKGAGNNVLVIDGQQKRFCCQSCVSEYKQVG [E6K] | -0.231 ± 0.1 |
| IMNCCFQCGEYLPSKGAGNNVLVIDGQQKRFCCQSCVSEYKQVG [E6F] | -0.229 ± 0.22 |
| IMNCCQQCGEYLPSKGAGNNVLVIDGQQKRFCCQSCVSEYKQVG [E6Q] | -0.116 ± 0.15 |
| IMNCCYQCGEYLPSKGAGNNVLVIDGQQKRFCCQSCVSEYKQVG [E6Y] | -0.267 ± 0.17 |
| IMNCCTQCGEYLPSKGAGNNVLVIDGQQKRFCCQSCVSEYKQVG [E6T] | -0.222 ± 0.14 |
| IMNCCAQCGEYLPSKGAGNNVLVIDGQQKRFCCQSCVSEYKQVG [E6A] | -0.197 ± 0.082 |
| IMNCCPQCGEYLPSKGAGNNVLVIDGQQKRFCCQSCVSEYKQVG [E6P] | -0.253 ± 0.085 |
| IMNCCNQCGEYLPSKGAGNNVLVIDGQQKRFCCQSCVSEYKQVG [E6N] | -0.241 ± 0.19 |
| IMNCCVQCGEYLPSKGAGNNVLVIDGQQKRFCCQSCVSEYKQVG [E6V] | -0.256 ± 0.1 |
| IMNCCHQCGEYLPSKGAGNNVLVIDGQQKRFCCQSCVSEYKQVG [E6H] | -0.256 ± 0.12 |
| IMPCCEQCGEYLPSKGAGNNVLVIDGQQKRFCCQSCVSEYKQVG [N3P] | -0.345 ± 0.084 |
| IMSCCEQCGEYLPSKGAGNNVLVIDGQQKRFCCQSCVSEYKQVG [N3S] | -0.141 ± 0.079 |
| IMQCCEQCGEYLPSKGAGNNVLVIDGQQKRFCCQSCVSEYKQVG [N3Q] | -0.232 ± 0.09 |
| IMVCCEQCGEYLPSKGAGNNVLVIDGQQKRFCCQSCVSEYKQVG [N3V] | -0.366 ± 0.1 |
| IMKCCEQCGEYLPSKGAGNNVLVIDGQQKRFCCQSCVSEYKQVG [N3K] | -0.231 ± 0.089 |
| IMMCCEQCGEYLPSKGAGNNVLVIDGQQKRFCCQSCVSEYKQVG [N3M] | -0.194 ± 0.092 |

| Variant | abundance fitness |
| --- | --- |
| IMTCCEQCGEYLPSKGAGNNVLVIDGQQKRFCCQSCVSEYKQVG [N3T] | -0.249 ± 0.097 |
| IMWCCEQCGEYLPSKGAGNNVLVIDGQQKRFCCQSCVSEYKQVG [N3W] | -0.402 ± 0.12 |
| IMNCREQCGEYLPSKGAGNNVLVIDGQQKRFCCQSCVSEYKQVG [C5R] | -0.697 ± 0.08 |
| IMNCSEQCGEYLPSKGAGNNVLVIDGQQKRFCCQSCVSEYKQVG [C5S] | -0.524 ± 0.11 |
| IMNCGEQCGEYLPSKGAGNNVLVIDGQQKRFCCQSCVSEYKQVG [C5G] | -0.7 ± 0.068 |
| IMNCLEQCGEYLPSKGAGNNVLVIDGQQKRFCCQSCVSEYKQVG [C5L] | -0.922 ± 0.12 |
| IMNCVEQCGEYLPSKGAGNNVLVIDGQQKRFCCQSCVSEYKQVG [C5V] | -0.884 ± 0.094 |
| IMNCIEQCGEYLPSKGAGNNVLVIDGQQKRFCCQSCVSEYKQVG [C5I] | -1.08 ± 0.2 |
| IMNCMEQCGEYLPSKGAGNNVLVIDGQQKRFCCQSCVSEYKQVG [C5M] | -0.979 ± 0.35 |
| IMNCTEQCGEYLPSKGAGNNVLVIDGQQKRFCCQSCVSEYKQVG [C5T] | -0.587 ± 0.13 |
| IMNCAEQCGEYLPSKGAGNNVLVIDGQQKRFCCQSCVSEYKQVG [C5A] | -0.65 ± 0.09 |
| IMNCKEQCGEYLPSKGAGNNVLVIDGQQKRFCCQSCVSEYKQVG [C5K] | -0.38 ± 0.16 |
| IMNCWEQCGEYLPSKGAGNNVLVIDGQQKRFCCQSCVSEYKQVG [C5W] | -1.5 ± 0.12 |
| IMNCEEQCGEYLPSKGAGNNVLVIDGQQKRFCCQSCVSEYKQVG [C5E] | -0.377 ± 0.11 |
| IMNCHEQCGEYLPSKGAGNNVLVIDGQQKRFCCQSCVSEYKQVG [C5H] | -0.641 ± 0.31 |
| IMNCDEQCGEYLPSKGAGNNVLVIDGQQKRFCCQSCVSEYKQVG [C5D] | -0.637 ± 0.099 |
| IMNCPEQCGEYLPSKGAGNNVLVIDGQQKRFCCQSCVSEYKQVG [C5P] | -0.854 ± 0.13 |
| IMNCCEECGEYLPSKGAGNNVLVIDGQQKRFCCQSCVSEYKQVG [Q7E] | -0.26 ± 0.094 |
| IMNCCEKCGEYLPSKGAGNNVLVIDGQQKRFCCQSCVSEYKQVG [Q7K] | -0.135 ± 0.26 |
| IMNCCECCGEYLPSKGAGNNVLVIDGQQKRFCCQSCVSEYKQVG [Q7C] | -0.034 ± 0.14 |

| Variant | abundance fitness |
| --- | --- |
| IMNCCEWCGEYLPSKGAGNNVLVIDGQQKRFCCQSCVSEYKQVG [Q7W] | -0.214 ± 0.091 |
| IMNCCEHCGEYLPSKGAGNNVLVIDGQQKRFCCQSCVSEYKQVG [Q7H] | -0.076 ± 0.12 |
| IMNCCETCGEYLPSKGAGNNVLVIDGQQKRFCCQSCVSEYKQVG [Q7T] | -0.139 ± 0.13 |
| IMNCCEDCGEYLPSKGAGNNVLVIDGQQKRFCCQSCVSEYKQVG [Q7D] | -0.466 ± 0.12 |
| IMNCCEYCGEYLPSKGAGNNVLVIDGQQKRFCCQSCVSEYKQVG [Q7Y] | -0.222 ± 0.13 |
| IMNCCEVCGEYLPSKGAGNNVLVIDGQQKRFCCQSCVSEYKQVG [Q7V] | -0.288 ± 0.082 |
| IMNCCELCGEYLPSKGAGNNVLVIDGQQKRFCCQSCVSEYKQVG [Q7L] | -0.226 ± 0.076 |
| IMNCCEGCGEYLPSKGAGNNVLVIDGQQKRFCCQSCVSEYKQVG [Q7G] | -0.137 ± 0.073 |
| IMNCCEACGEYLPSKGAGNNVLVIDGQQKRFCCQSCVSEYKQVG [Q7A] | -0.09 ± 0.089 |
| IMNCCEMCGEYLPSKGAGNNVLVIDGQQKRFCCQSCVSEYKQVG [Q7M] | -0.152 ± 0.1 |
| IMNCCENCGEYLPSKGAGNNVLVIDGQQKRFCCQSCVSEYKQVG [Q7N] | -0.436 ± 0.27 |
| IMNCCERCGEYLPSKGAGNNVLVIDGQQKRFCCQSCVSEYKQVG [Q7R] | -0.019 ± 0.08 |
| IMNCCEQCGAYLPSKGAGNNVLVIDGQQKRFCCQSCVSEYKQVG [E10A] | -0.477 ± 0.12 |
| IMNCCEQCGTYLPSKGAGNNVLVIDGQQKRFCCQSCVSEYKQVG [E10T] | -0.751 ± 0.12 |
| IMNCCEQCGHYLPSKGAGNNVLVIDGQQKRFCCQSCVSEYKQVG [E10H] | -0.224 ± 0.27 |
| IMNCCEQCGKYLPSKGAGNNVLVIDGQQKRFCCQSCVSEYKQVG [E10K] | -0.068 ± 0.15 |
| IMNCCEQCGMYLPSKGAGNNVLVIDGQQKRFCCQSCVSEYKQVG [E10M] | -0.656 ± 0.13 |
| IMNCCEQCGSYLPSKGAGNNVLVIDGQQKRFCCQSCVSEYKQVG [E10S] | -0.358 ± 0.14 |
